According to patent US20250340659A1 (PETMEDIX, published 2025):

T1: canine OX40L, full length membrane form, expressed on HEK293 cells (canine)
T1 chain: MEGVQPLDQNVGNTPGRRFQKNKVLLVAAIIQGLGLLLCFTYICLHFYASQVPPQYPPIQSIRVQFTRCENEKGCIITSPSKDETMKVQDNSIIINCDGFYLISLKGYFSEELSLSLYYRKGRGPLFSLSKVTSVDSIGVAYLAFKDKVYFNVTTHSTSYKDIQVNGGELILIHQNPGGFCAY


What was measured:
[1] = target: T1, canine OX40L, full length membrane …; assay: cell-based or functional assay
[2] = target: T1, canine OX40L, full length membrane …; assay: flow cytometry, OX40L HEK minus WT HEK
Experimental: (§1) CHO supernatants diluted in FACS buffer (PBS containing 3% FBS) at 1, 5 or 10 μg/ml were used to screen for their binding capacity to canine OX40L using a cell-based assay. In brief, HEK293 or MEF cells (or any other commonly used cell lines) expressing canine OX40L at the cell surface are incubated with 100 μll of FACS buffer containing the candidate antibody for 30′ on ice. Cells are washed with 150 μl FACS buffer followed by centrifugation at 300 g for 3 min. The cell pellet is resuspended in FACS buffer containing a 1:1000 dilution of a fluorescently labelled secondary antibody recognising the canine Fc region of the test antibody for 30 min in the dark, followed by washing with 150 μl FACS buffer. Cells are resuspended in FACS buffer and flow cytometry performed using either a […] cytometer, followed by data analysis using FlowJo (FIG. 6 and Table 4).

[3] = target: T1, canine OX40L, full length membrane …; assay: flow cytometry
Experimental: as §1

| Binder | % Signal Inhibition Average [1] | % Signal Inhibition Rep1 [1] | % Signal Inhibition Rep2 [1] | % Signal Inhibition Rep3 [1] | GEO mean difference [2] | GEO mean OX40L expressing HEK [3] |
| --- | --- | --- | --- | --- | --- | --- |
| PMX096 (antibody, V domains shown) VH: EVQLVESGGDLVKPGGSLRLSCVASGFTFNTYHMNWVRQAPGKGLHWVAFINSGGSDTSYADTVQGRFTISRDYAKNTLYLQMNSLRAEDTAVYYCASGYIWTHFDYWGQGTLVTVSS VL: SYVLTQLPSVSVTLRQTAHITCGGDIIGSKSVYWYQQKLGQAPVMIIYRDNNRPTGIPERFSGASSGNTATLTISGSLAEDEADYYCQVWDSRTQALFGGGTHLTVL | 50.1% | 36.8% | 59.1% | 54.4% |  |  |
| PMX094 (antibody, V domains shown) VH: DIHLVESGGDLVRPGGSLRLSCVASGFTFSNLHMNWVRQAPGKGLQWVAFINSGGSGTTYADVVRGRFTISRDYAKNTLYLQMNSLRADDTAVYYCASGSIWTHFDYWGQGTLVTVSS VL: SFVLTQLPSVSVTLRQTARITCGGDSIGSKSVYWYQQKLGQAPVLIIYRDSNRPTGIPERISGASSGNTATLTISGALAEDEADYYCQVWDSSNKAMFGGGTHLTVL | 45.4% | 38.6% | 55% | 42.7% |  |  |
| PMX101 (antibody, V domains shown) VH: EVQLVESGGDLVRPGGSLRLSCVASGFTFSNYHMSWVRQAPGKGLQWVAFINSGGSSTSYADAVRGRFTISRDYAKNTLYLQMNSLRAEDTAVYYCASGSIWTHFDYWGQGTLVTVSS VL: SFVLTQLPSVSVTLRQTARITCGGDIIGSKSVYWFQQKLGQAPILIIYRDDNRPTGIPERFSGASSGNTATLIISGALAEDEAHYYCQVWDSSSKAMFGGGTHLTVL | 52.4% | 62.6% | 50.3% | 44.4% |  |  |
| PMX099 (antibody, V domains shown) VH: EVQLVESGGDLVRPGGSLRLSCVASGFTFSSYHMNWVRQAPGKGLQWVAFINSGGSSTTYADVVRGRFTISRDYAKNTLYLQMNSLRAEDTAVYYCASGSIWTHFDYWGQGTLVTVSS VL: SFVLTQLPSVSVTLRQTARITCGGDSIGTKSVYWYQQKLGQAPVLIIYRDSNRPTGIPERFSGASSGNTATLTISGALAEDEADYYCQVWDSSNKAMFGGGTHLTVL | 24.8% | 25.1% | 32.7% | 16.4% |  |  |
| PMX103 (antibody, V domains shown) VH: EVQLVESGGDLVRPGGSLRLSCVASGFTFSNLHMNWVRQAPGKGLQWVAFINSGGSGTTYADVVRGRFTISRDYAKNTLNLQMTSLRAEDTAVYYCATGSIWTHFDYWGQGTLVTVSS VL: SFVLTQLPSVSVTLRQTARITCGGDSIGSKSVYWYQQKLGQAPVLIIYRDSNRPTGIPERISGASSGNTATLTISGALAEDEADYYCQVWDSSNKAMFGGGTHLTVL | 47.6% | 57.3% | 26.3% | 59.1% |  |  |
| PMX100 (antibody, V domains shown) VH: EVQLVESGGDLVRPGGSLRLSCVASGFTFSSYHMSWVRQAPGKGLQWVAFINSGGSSTTYADVVRGRFTISRDYAKNTLYLQMNSLRAEDTAVYYCASGSIWTHFDYWGQGTLVTVSS VL: SFVLTQLPSVSVTLRQTARITCGGDSIGSKSVYWYQQRLGQAPVLIIYRDSNRPTGIPERFSGASSGNTATLTISGALAEDEADYYCQVWDNSNKAMFGGGTHLTVL | 32.4% | 49.1% | 28.1% | 19.9% |  |  |
| PMX095 (antibody, V domains shown) VH: AVQLVESGGDLVRPGGSLRLSCVASGFTFSSYHMNWVRQAPGKGLQWVAFINSGGSSTTYADVVRGRFTISRDYAKNTLFLQMNSLRAEDTAVYYCAIGSIWTHFDYWGQGTLVTVSS VL: SFVLTQLPSVSVTLRQTARITCGGDIIGSKNVYWYQQRLGQAPVLILYRDTNRPTGIPERFSGASSGNTATLTISGALAEDEADYYCQVWDNSNKAMFGGGTHLTVL | 50.3% | 40.9% | 52.6% | 57.3% |  |  |
| PMX084 (antibody, V domains shown, also called PMX84) VH: EVQLVESGGDLVKPEGSLRLSCVVSGFTFSNYDMSWVRQAPGKGLQWVAFISNDGRITGYTDAVEGRFTISRDNAKNTLYLQMNSLRTEDTAVYYCAKETSRWGFDYWGQGTLVTVSS VL: SYVLTQLPSVSVTLRQTARITCGGDSIGSKNVYWHQQKLGQAPVLIIYDDSSRPSGIPERFSGANSGNTATLTISGALAEDEADYYCQVWDSSTSVFGGGTHLTVL | 60.7% | 47.2% | 66.9% | 68% | 610000 | 622000 |
| PMX062 (antibody, also called PMX62) heavy: EVQLVESGGDLVKPEGSLRLSCVVSGFTFSSYDMSWVRQAPGKGLQWVAYISFDGRSTSYTDVVKGRFTISRDNAKTTLYLQMNTLRIEDTAVYYCAKLSSSGWSMDYWGHGTSLFVSSASTTAPSVFPLAPSCGSTSGSTVALACLVSGYFPEPVTVSWNSGSLTSGVHTFPSVLQSSGLYSLSSMVTVPSSRWPSETFTCNVAHPASKTKVDKPVPKRENGRVPRPPDCPKCPAPESLGGPSVFIFPPKPKDTLLIARTPEVTCVVVDLGREDPEVQISWFVDGKQMQTAKTQPREEQFNGTYRVVSVLPIGHQDWLKGKQFTCKVNHIGLPSPIERTISKARGQAHQPSVYVLPPSREELSKNTVSLTCLIKDFFPPDIDVEWQSNGQQEPESKYRTTPPQLDEDGSYFLYSKLSVDKSRWQRGDTFICAVMHEALHNHYTQKSLSHSPGK VL: SYVLTQLPSKNVTLKQPAHITCGGDNIGSKSVHWYQQKLGQAPVLIIYYDSSRPTGIPERFSGANSGNTATLTISGALAEDEADYYCQVWDSSASVFGGGTHLTVL | 15% | 4.15% | 22.1% | 18.7% | 2.78e+06 | 2.81e+06 |
| PMX089 (antibody, V domains shown) VH: EVQLVESGGDLVKPGGSLRLSCVASGFTFNNFHMSWVRQAPGKGLQWVAFINSDGGNRNYADVVKGRVTISRDYAKNTLYLQINSLRAEDTAVYYCAGGSIWTHFDYWGQGTLVTVSS VL: SYVLTQLPSMSVTLRQTARITCEGDIIASKRIYWYQQKLGQVPVLLIYADSSRPSGIPERFSGASSGNTATLTISGALAEDEADYYCQVWDNNANSVFGGGTHLTVL | 47.4% | 43.3% | 49.7% | 49.1% |  |  |
| PMX093 (antibody, V domains shown) VH: EVQLVESGGDLVKPGGSLRLSCVASGFTFSSYHMSWVRQAPGKGLQWVAFINSGGGGTNYADAVKGRFTISRDYAKNTLYLQMNSLRAEDTAVYYCVGGSIWTHFDYWGQGTLVTVSS VL: SYVLTQLPSMSVTLRQTARITCEGDIIASKRVYWYQQKLGQVPVLLIYGDSSRPSGIPERFSGANSGNTATLTISGALAEDEADYYCQVWDSGTNSVFGGGTHLTVL | 5.46% | 0% | -0.585% | 17% |  |  |
| PMX092 (antibody, V domains shown) VH: EVQLVESGGDLVKPGGSLRLSCVASGFTFNNLHMSWVRQAPGKGLQWVAFINSDGRNRNYADAVKGRVTISRDYAKNTLYLQINSLRAEDTAVYYCTGGSIWTHFDYWGQGTLVTVSS VL: SYVLTQLPSMSVTLRQTARITCEGDIIASKRVYWYQQKLGQVPVLFIYADNSRPSGIPERFSGASSGNTATLTISGALAEDEADYYCQVWDSNANSVFGGGTHLTVL | 34.7% | 33.3% | 39.2% | 31.6% |  |  |
